The values below come from PMC11382572, “Structural and kinetic insights into the stereospecific oxidation of R-2,3-dihydroxypropanesulfonate by DHPS-3-dehydrogenase from Cupriavidus pinatubonensis” (Chemical Science, 2024).

Series [1] concerns O=S(=O)(O)C[C@H](O)CO. The experiment in a line: Michaelis-Menten kinetics (apparent KM). In kind it is biochemical, Cupriavidus pinatubonensis. Conditions: Zn2+, NAD+.
For series [2], the system named is O=S(=O)(O)C[C@H](O)CO. The experiment in a line: purified protein. The note with it: Zn2+. The class given is biochemical, Cupriavidus pinatubonensis.

One may read the Km as the substrate concentration at which the rate is half of its maximum. The kcat/Km is the second-order rate constant that governs catalysis at low substrate concentration. Take “DHPS-3-dehydrogenase (CpHpsN) (Cupriavidus pinatubonensis JMP134; E318A)”: in the series on O=S(=O)(O)C[C@H](O)CO [1], the Km was 2800 ± 300 µM and the kcat/Km turned out to be 1.8 M⁻¹ s⁻¹.
“DHPS-3-dehydrogenase (CpHpsN) (Cupriavidus pinatubonensis JMP134; H319A)”: the Km in the series with O=S(=O)(O)C[C@H](O)CO [2] turned out to be 1200 ± 300 µM. Also, in the series on O=S(=O)(O)C[C@H](O)CO [2] (NADH active site, sulfonate and secondary hydroxyl groups participate in octahedral zinc coordination, occupancy […]), the kcat/Km was determined as 3.1 M⁻¹ s⁻¹.
